Substitutions are numbered along the chain they refer to. In names and notes the source's numbering stands. Blank lines part the entries; values can stand above or below the binder they belong to.
Target: Human CD137 ECD (human)
Test: SPR, vs parent H183/L072

Human CD137 ECD (human), sequence (chain, as listed by the source limits assumed): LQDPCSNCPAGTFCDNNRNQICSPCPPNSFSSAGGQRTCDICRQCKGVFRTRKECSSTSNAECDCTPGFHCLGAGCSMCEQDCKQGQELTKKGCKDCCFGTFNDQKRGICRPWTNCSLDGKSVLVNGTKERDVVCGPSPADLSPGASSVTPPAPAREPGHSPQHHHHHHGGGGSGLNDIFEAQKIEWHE

fold change of affinity: 0 fold
B1: dBBDu183H V95E / dBBDu072L (antibody, name in Kabat numbering, V domains shown)
VH: QVQLVESGGGLVQPGRSLRLSCAASGFTFSNAWMHWVRQAPGKGLEWVAQIKDKGNAYAAYYAPSVKGRFTISRDDSKNSIYLQMNSLKTEDTAVYYCHYEHYASASTVLPAFGVDAWGQGTTVTVSS
VL: DIVMTQSPLSLPVTPGEPASISCQASQELVHMNRNTYLHWYQQKPGQAPRLLIYKVSNRFPGVPDRFSGSGSGTDFTLKISRVEAEDVGVYYCAQGTSVPFTFGQGTKLEIK

fold change of affinity: 0 fold
B2: dBBDu183H T100bH / dBBDu072L (antibody, name in Kabat numbering, V domains shown)
VH: B1 VH with E101V, T108H
VL: B1 VL

fold change of affinity: 0 fold
B4: dBBDu183H T100bE / dBBDu072L (antibody, name in Kabat numbering, V domains shown)
VH: B1 VH with E101V, T108E
VL: B1 VL

fold change of affinity: 0 fold
B5: dBBDu183H Y97E / dBBDu072L (antibody, name in Kabat numbering, V domains shown)
VH: B1 VH with E101V, Y103E
VL: B1 VL

fold change of affinity: 0 fold
B6: dBBDu183H V100iE / dBBDu072L (antibody, name in Kabat numbering, V domains shown)
VH: B1 VH with E101V, V115E
VL: B1 VL

fold change of affinity: 0 fold
B10: dBBDu183H S100aH / dBBDu072L (antibody, name in Kabat numbering, V domains shown)
VH: B1 VH with E101V, S107H
VL: B1 VL

fold change of affinity: 0 fold
B11: dBBDu183H Y94H / dBBDu072L (antibody, name in Kabat numbering, V domains shown)
VH: B1 VH with Y100H, E101V
VL: B1 VL

fold change of affinity: 0 fold
B14: dBBDu183H V95H / dBBDu072L (antibody, name in Kabat numbering, V domains shown)
VH: B1 VH with E101H
VL: B1 VL

fold change of affinity: 0 fold
B18: dBBDu183H Y97H / dBBDu072L (antibody, name in Kabat numbering, V domains shown)
VH: B1 VH with E101V, Y103H
VL: B1 VL

Further lines, the binder ahead of its results:

B3: dBBDu183H A98H / dBBDu072L (antibody, name in Kabat numbering, V domains shown)
VH: B1 VH with E101V, A104H
VL: B1 VL
fold change of affinity: 0 fold

B7: dBBDu183H H96E / dBBDu072L (antibody, name in Kabat numbering, V domains shown)
VH: B1 VH with E101V, H102E
VL: B1 VL
fold change of affinity: 0 fold

B8: dBBDu183H A100H / dBBDu072L (antibody, name in Kabat numbering, V domains shown)
VH: B1 VH with E101V, A106H
VL: B1 VL
fold change of affinity: 0 fold

B9: dBBDu183H S100aE / dBBDu072L (antibody, name in Kabat numbering, V domains shown)
VH: B1 VH with E101V, S107E
VL: B1 VL
fold change of affinity: 0 fold

B12: dBBDu183H G100hE / dBBDu072L (antibody, name in Kabat numbering, V domains shown)
VH: B1 VH with E101V, G114E
VL: B1 VL
fold change of affinity: 0 fold

B13: dBBDu183H S99E / dBBDu072L (antibody, name in Kabat numbering, V domains shown)
VH: B1 VH with E101V, S105E
VL: B1 VL
fold change of affinity: 0 fold

B15: dBBDu183H L100dH / dBBDu072L (antibody, name in Kabat numbering, V domains shown)
VH: B1 VH with E101V, L110H
VL: B1 VL
fold change of affinity: 0 fold

B16: dBBDu183H A102E / dBBDu072L (antibody, name in Kabat numbering, V domains shown)
VH: B1 VH with E101V, A117E
VL: B1 VL
fold change of affinity: 0 fold

B17: dBBDu183H A100fE / dBBDu072L (antibody, name in Kabat numbering, V domains shown)
VH: B1 VH with E101V, A112E
VL: B1 VL
fold change of affinity: 0 fold
